Literature values, collected in article PMC4657025.
Read-outs that look alike come from different tables or passages of the source.

Tests used:
[1] = target: Asp85 (UniProt position 98, …)
[2] = target: Asp96 (UniProt position 109, …); assay: not stated in the text (title of ref 19 indicates FTIR spectroscopy); details: dark state (unphotolysed BR)
[3] = target: Asp85 (UniProt position 98, …); details: 150 mM NaCl

| Protein | pKa [1] | pKa ([1]; 150 mM NaCl) | pKa [2] | pKa [3] |
| --- | --- | --- | --- | --- |
| Bacteriorhodopsin (BR) (Halobacterium salinarum) (protein) QAQITGRPEWIWLALGTALMGLGTLYFLVKGMGVSDPDAKKFYAITTLVPAIAFTMYLSMLLGYGLTMVPFGGEQNPIYWARYADWLFTTPLLLLDLALLVDADQGTILALVGADGIMIGTGLVGALTKVYSYRFVWWAISTAAMLYILYVLFFGFTSKAESMRPEVASTFKVLRNVTVVLWSAYPVVWLIGSEGAGIVPLNIETLLFMVLDVSAKVGFGLILLRSRAIFGEAEAPEPSAGDGAAATSD | 2.7 | 2.5 | >11 | – |
| Bacteriorhodopsin R82Q mutant (Halobacterium salinarum; R82Q) (protein) QAQITGRPEWIWLALGTALMGLGTLYFLVKGMGVSDPDAKKFYAITTLVPAIAFTMYLSMLLGYGLTMVPFGGEQNPIYWAQYADWLFTTPLLLLDLALLVDADQGTILALVGADGIMIGTGLVGALTKVYSYRFVWWAISTAAMLYILYVLFFGFTSKAESMRPEVASTFKVLRNVTVVLWSAYPVVWLIGSEGAGIVPLNIETLLFMVLDVSAKVGFGLILLRSRAIFGEAEAPEPSAGDGAAATSD | – | – | – | 7.2 |
